Laboratory results as given in patent US20250027068.
Where a chain is given by its changes, count along the chain named.

B1: PRT-28 (protein)
chain: MANQEIRYSEVTPYHVTSVWTKGVTPPANFTQGEDVFHAPYVANQGWYDITKTFNGKDDLLCGAATAGNMLHWWFDQNKDQIKRYLEEHPEKQKINFNGEQMFDVKEAIDTKDHQLDSKLFEYFKEKAFPYLSTKHLGVFPDHVLDMFINGYRLSLTNHGPTPVKEGSKDPRGGIFDAVFTRGDQSKLLTSRHDFKEKTLKEISDLIKKELTEGKALGLSHTYANVRINHVINLWGADFDSNGNLKAIYVTDSDSNASIGMKKYFVGVNSAGKVAISAKEIKEDNIGAQVLGLFTLSTGQDSWNQTN
B2: PRT-34 (protein)
chain: B1 chain with D113N, H114S, L145I, T199N
B3: PRT-33 (protein)
chain: B1 chain with E87K, D113N, L145I, T199N
B4: PRT-29 (protein)
chain: B1 chain with D113N, L145I, T199N, K209Q, K246E, K282E
B5: PRT-30 (protein)
chain: B1 chain with D113N, N242E
B6: PRT-1 (protein)
chain: B1 chain with D113N, L145I, T199N
B7: PRT-37 (protein)
chain: B1 chain with D113N, L145I
B8: PRT-31 (protein)
chain: B1 chain with K83E, D113N, L145I, T199N
B9: PRT-32 (protein)
chain: B1 chain with D113N, L145I, T199N, S302I
B10: PRT-38 (protein)
chain: B1 chain with D113N, L145I, T199N, K246E
B11: PRT-35 (protein)
chain: B1 chain with L145I, T199N
B12: PRT-36 (protein)
chain: B1 chain with D113N, L116T, L145I, T199N

molecular target: pooled human IgG

First: B1
Second: B2
The Enzyme Activity Endpoint Assay: Fab′2 of the first is lower: 16 ng/µL for the first, 37 ng/µL for the second.

Compared with B3, B4 is lower in Enzyme Activity Endpoint Assay: Fab′2: 26 ng/µL for the first, 19 ng/µL for the second.

Going from B5 to B6, the Enzyme Activity Endpoint Assay: Fab′2 rises from 3 ng/µL to 44 ng/µL.

Going from B7 to B8, the Enzyme Activity Endpoint Assay: Fab′2 rises from 4 ng/µL to 46 ng/µL.

Going from B9 to B10, the Enzyme Activity Endpoint Assay: Fab′2 falls from 48 ng/µL to 46 ng/µL.

First: B11
Second: B12
The Enzyme Activity Endpoint Assay: Fab′2 of the first is lower: 37 ng/µL for the first, 48 ng/µL for the second.

Compared with B1, B2 is higher in Enzyme Activity Endpoint Assay: Fc: 89 ng/µL for the first, 95 ng/µL for the second.

Compared with B3, B4 is higher in Enzyme Activity Endpoint Assay: Fc: 93 ng/µL for the first, 95 ng/µL for the second.

Going from B5 to B6, the Enzyme Activity Endpoint Assay: Fc rises from 73 ng/µL to 100 ng/µL.

Going from B7 to B8, the Enzyme Activity Endpoint Assay: Fc rises from 79 ng/µL to 126 ng/µL.

B9 and B10 are the same in Enzyme Activity Endpoint Assay: Fc: 124 ng/µL for the first, 124 ng/µL for the second.

Going from B11 to B12, the Enzyme Activity Endpoint Assay: Fc rises from 104 ng/µL to 123 ng/µL.

First: B1
Second: B2
The Enzyme Activity Endpoint Assay: IgG of the first is higher: 14 ng/µL for the first, 10 ng/µL for the second.

Compared with B3, B4 is higher in Enzyme Activity Endpoint Assay: IgG: 17 ng/µL for the first, 27 ng/µL for the second.

Going from B5 to B6, the Enzyme Activity Endpoint Assay: IgG rises from 21 ng/µL to 23 ng/µL.

Going from B7 to B8, the Enzyme Activity Endpoint Assay: IgG falls from 23 ng/µL to 13 ng/µL.

B9 and B10 are the same in Enzyme Activity Endpoint Assay: IgG: 14 ng/µL for the first, 14 ng/µL for the second.

First: B11
Second: B12
The Enzyme Activity Endpoint Assay: IgG of the first is lower: 9 ng/µL for the first, 15 ng/µL for the second.

Going from B1 to B2, the Enzyme Activity Endpoint Assay: scIgG falls from 44 ng/µL to 14 ng/µL.

Going from B3 to B4, the Enzyme Activity Endpoint Assay: scIgG falls from 44 ng/µL to 43 ng/µL.

First: B5
Second: B6
The Enzyme Activity Endpoint Assay: scIgG of the first is higher: 65 ng/µL for the first, 21 ng/µL for the second.

Compared with B7, B8 is lower in Enzyme Activity Endpoint Assay: scIgG: 69 ng/µL for the first, 15 ng/µL for the second.

Going from B9 to B10, the Enzyme Activity Endpoint Assay: scIgG falls from 17 ng/µL to 15 ng/µL.

Going from B11 to B12, the Enzyme Activity Endpoint Assay: scIgG rises from 14 ng/µL to 16 ng/µL.
